Results published in paper PMC9586977, “Structure of the pre-mRNA leakage 39-kDa protein reveals a single domain of integrated zf-C3HC and Rsm1 modules” (Scientific Reports, 2022).

B1: ScPml39_(77–317), truncated Saccharomyces cerevisiae pre-mRNA leakage 39-kDa protein (residues 77–317) (domain or fragment, UniProt Q03760 77-317, looked up)
chain: GFRLHDLRALLKRICSIQNYTRHVLIEWDVRWVNPLTLASKGWEPYQSASQSQVPFKCCCCHAIMTIPLLKNGDDVADYTMKLNEKIWNSNIIGNHLQKCPWRENQVDLNKEYYLSSQNLIREIERIHTEIDRIVSGSNEFSLKRNSSRIFHYLSEKEIQKLAFFFDCKDYSLVGLLLLGYTKFQKDDLVQCTACFHRASLKKLEYTEFNGHALWCRYYNKELLPTMLLELIGKEDKLITK
notes: Pml39 (pre-mRNA leakage 39-kDa protein), Saccharomyces cerevisiae, UniProtKB Q03760, residues 77-317 of 334; holds the zf-C3HC (79-189) and Rsm1 (190-311) modules; Cloned into NcoI/NotI of pET28a; hexahistidine tag removed with PreScission protease; also called truncated ScPml39; source: E. coli BL21(DE3)-RIL CodonPlus, purified (Ni-NTA, HiTrap SP, Superdex 200)
B2: ScMlp1_(1–325), N-terminal fragment of Saccharomyces cerevisiae Myosin-like protein 1 (residues 1–325), homodimer (domain or fragment, UniProt Q02455 1-325, looked up)
chain: MSDHDTPMESIQNGENSDERLNAIASFFGCSLEQVKSFDGDVVKHLNDKLLQFNELKSENLKVTVSFDELKASSLKKIDGLKTEMENVIRENDKIRKERNDTFVKFESVENEKMKLSSELEFVKRKLDDLTEEKKETQSNQQRTLKILDERLKEIELVRVENNRSNSECKKLRSTIMDLETKQQGYITNDLNSRTELERKTQELTLLQSNNDWLEKELRSKNEQYLSYRQKTDKVILDIRNELNRLRNDFQMERTNNDVLKQKNNELSKSLQEKLLEIKGLSDSLNSEKQEFSAEMSLKQRLVDLLESQLNAVKEELNSIRELNT
notes: Cloned into NcoI/NotI of pET28a; hexahistidine tag removed with PreScission protease; Homodimer by SEC-MALS (~80 kDa; expected monomer 41 kDa); also called ΔC-ScMlp1; source: E. coli BL21(DE3)-RIL CodonPlus, purified (Ni-NTA, HiTrap Q, Superdex 200)

Experiments:
[1] = biological target: B2; experiment: ITC; 1.6 mM ScPml39(77-317) injected (2 µl every 180 s) into 350 µl of 70 µM ScMlp1(1-325) in the chamber; 4 °C; 500 mM NaCl, 20 mM HEPES pH 7.5, 0.5 mM TCEP; three independent measurements; settings: both partners purified
[2] = biological target: the molecule itself; experiment: SEC-MALS; 100 µl of 70 µM ScMlp1(1-325) on Superdex 200 10/300 GL, 0.5 mL/min, 25 °C; 500 mM NaCl, 20 mM HEPES-NaOH pH 7.5, 0.5 mM TCEP

Kd [1] | stoichiometry N [1] | Binder | stoichiometry N [2]
~13 µM | 1 | B1 | –
– | – | B2 | 2
